According to paper doi:10.1101/2021.01.18.427223:

Molecular target: VPS35 D620N (VPS35 D620N knock-in mouse, VKI) (mouse (endogenous in brain)), Q9EQH3
Test: co-IP
Details: remark: other sources report otherwise

- percent reduction of co-IP against wild type: 25 to 30%
B1: WASH complex member FAM21, Q6PGL7 1-1334 (natural protein)
chain: MNRTSPDSERPPASEPVWERPWSVEEIRRSSQNWSLAADAGLLQFLQEFSQQTISRTHEIKKQVDGLIQETKATHCRLHNVFNDFLMLSNTQFIENRVYDEEVEEQVLKAEAEKAEQEKTREQKEIDLIPKVQEAVNYGLQVLDSAFEQLDIKAGNSDSEEDDANERVDLILEPKDLYIDRPLPYLIGSKLFMEQEDVGLGELSSEEGSVGSDRGSIVDSEDEKEEEESDEDFASHSDNDQNQHTTQISDEEEDDDGDLFADSEKEGDDIEDIEESAKSKRPTSFADELAARIKGDISNQRKEGQTDGKPQKTVKEKKERRTPADDEEDILFPPPTLTDEDFSPFGSRGGLFSNGQGLFDDEDESDLFKEAPRARPAQAPVSEELPPSPKPGKKIPAGAVSVLLGHPDVSGSTSAPSLKELQKHGQPTPGKSSHLPTPAGLFDDDDNDNDEDDNNFFMPSSSKPSKTDKVKSTAIIFDDDEGDLFKEKAEALPAASVSQTHESKTRADKTIALPSSKNLKLVSETKTQKGLFSDEEDSEDLFSSQSSSKPKSASLPSSQPPTSVSLFGDEDEEDSLFGSAAAKKQTSSLQPQSQEKAKPSEQPSKKTSALLFSSDEEDQWNIADSHTKLASDNKSKGELWDSGATQGQEAKAVKKTNLFEDDDDDEVDLFAIAKDSQKKTQRTSLLFEDDAESGSSLFGLPPTSVPSATTKKESVPKVPLLFSDEEDSEVPSGVKPEDLKVDNARVSPEVGSADVASIAQKEGLLPASDQEAGGPSDIFSSSSPLDKGAKGRTRTVLSLFDEDEDKVEDESSTCAPQDGREKGLKTDSRPKSTGVFQDEELLFSHKLQKDNDPDVDLFAGTKKIRSSVPSGGSLFGDDEDDDLFSSAKTQPVVPEKKGTLKKDHPVSLKNQDPLDSTQGSKEKSTWKTEPAQDSSGLTPFKSREPSSRIGKIQANLAINPAALLPTVALQIPGTKPVSSELAFPSSEPGRSHILESVPTLPGSVEAGVSFDLPAQADTLHSANKSRVKVRGKRRPQTRAARRLAAQESSEAEDVTVDRGPVAQLSSSPVLPNGHQPLLQPRMASGQTSSETATAPPWEGGPVLSAADRSFFVKSRPQTGNEADLFDSGDIFPKSRGSQSVEGAGVMAGEPPSHSSGGRKEKSLAFPDLSEGSSTEDLFQSVKPRAAKNRNPFPLLEDEEDLFADPRGKKNERKPDSHQDSVSKTHDIFEDDIFATEAIKPFPKKREKGRTLEPNLFDDNIDIFADLTVKPKEKSKKKVAAKSMFDDDTDDIFSSGLQAKASKPKSQSAEAASEQRSEHKVASIFDDPLNAFGSQ
